Source: the supplement of paper PMC11316812
± gives the standard deviation of the averaged measurements.

What was measured:
[1] = tested on: hTERT-HMEC; experiment: percentage of EdU-negative (G0-arrested) nuclei per well, 72 h; higher = more G0 arrest; details: reference: sequence is the full UniProt precursor, the tested protein was the secreted form or ectodomain
[2] = tested on: MCF7; experiment: as above; details: reference: sequence is the full UniProt precursor, the tested protein was the secreted form or ectodomain
[3] = protein concentration 0.00839 µM
[4] = protein concentration 0.0839 µM
[5] = protein concentration 0.00525 µM
[6] = protein concentration 0.0525 µM
[7] = protein concentration 0.0185 µM
[8] = protein concentration 0.00625 µM
[9] = protein concentration 0.0625 µM
[10] = protein concentration 0.01725 µM
[11] = protein concentration 0.1725 µM
[12] = protein concentration 0.02175 µM
[13] = protein concentration 0.2175 µM
[14] = protein concentration 0.0228571 µM
[15] = protein concentration 0.228571 µM
[16] = protein concentration 0.0225 µM
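Further: secreted proteins added to cultured cells, EdU pulse at the end, nuclei found by Hoechst imaging, EdU status from nuclear versus surrounding ring intensity ratio, PBS as neutral control.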

## MQLRNPELHLGCALALRFLALVSWDIPGARALDNGLARTPTMGWLHWERFMCNLDCQEEPDSCISEKLFMEMAELMVSEGWKDAGYEYLCIDDCWMAPQRDSEGRLQADPQRFPHGIRQLANYVHSKGLKLGIYADVGNKTCAGFPGSFGYYDIDAQTFADWGVDLLKFDGCYCDSLENLADGYKHMSLALNRTGRSIVYSCEWPLYMWPFQKPNYTEIRQYCNHWRNFADIDDSWKSIKSILDWTSFNQERIVDVAGPGGWNDPDMLVIGNFGLSWNQQVTQMALWAIMAAPLFMSNDLRHISPQAKALLQDKDVIAINQDPLGKQGYQLRQGDNFEVWERPLSGLAWAVAMINRQEIGGPRSYTIAVASLGKGVACNPACFITQLLPVKRKLGFYEWTSRLRSHINPTGTVLLQLENTMQMSLKDLL
[1]; protein concentration 0.021 µM
  percentage of EdU-negative: 5.25 ± 0.8%
[1]; protein concentration 0.21 µM
  percentage of EdU-negative: 4.6 ± 0.74%
[2]; protein concentration 0.021 µM
  percentage of EdU-negative: 24.8 ± 0.73%
[2]; protein concentration 0.21 µM
  percentage of EdU-negative: 24.3 ± 0.28%

## MAGLTAAAPRPGVLLLLLSILHPSRPGGVPGAIPGGVPGGVFYPGAGLGALGGGALGPGGKPLKPVPGGLAGAGLGAGLGAFPAVTFPGALVPGGVADAAAAYKAAKAGAGLGGVPGVGGLGVSAGAVVPQPGAGVKPGKVPGVGLPGVYPGGVLPGARFPGVGVLPGVPTGAGVKPKAPGVGGAFAGIPGVGPFGGPQPGVPLGYPIKAPKLPGGYGLPYTTGKLPYGYGPGGVAGAAGKAGYPTGTGVGPQAAAAAAAKAAAKFGAGAAGVLPGVGGAGVPGVPGAIPGIGGIAGVGTPAAAAAAAAAAKAAKYGAAAGLVPGGPGFGPGVVGVPGAGVPGVGVPGAGIPVVPGAGIPGAAVPGVVSPEAAAKAAAKAAKYGARPGVGVGGIPTYGVGAGGFPGFGVGVGGIPGVAGVPGVGGVPGVGGVPGVGISPEAQAAAAAKAAKYGAAGAGVLGGLVPGAPGAVPGVPGTGGVPGVGTPAAAAAKAAAKAAQFGLVPGVGVAPGVGVAPGVGVAPGVGLAPGVGVAPGVGVAPGVGVAPGIGPGGVAAAAKSAAKVAAKAQLRAAAGLGAGIPGLGVGVGVPGLGVGAGVPGLGVGAGVPGFGAGADEGVRRSLSPELREGDPSSSQHLPSTPSSPRVPGALAAAKAAKYGAAVPGVLGGLGALGGVGIPGGVVGAGPAAAAAAAKAAAKAAQFGLVGAAGLGGLGVGGLGVPGVGGLGGIPPAAAAKAAKYGAAGLGGVLGGAGQFPLGGVAARPGFGLSPIFPGGACLGKACGRKRK [F8WAH6]
[1]; [3]
  percentage of EdU-negative: 4.54 ± 0.69%
[1]; [4]
  percentage of EdU-negative: 6.95 ± 0.57%
[2]; [3]
  percentage of EdU-negative: 26.3 ± 0.31%
[2]; [4]
  percentage of EdU-negative: 25.1 ± 0.57%

## MATFISVQLKKTSEVDLAKPLVKFIQQTYPSGGEEQAQYCRAAEELSKLRRAAVGRPLDKHEGALETLLRYYDQICSIEPKFPFSENQICLTFTWKDAFDKGSLFGGSVKLALASLGYEKSCVLFNCAALASQIAAEQNLDNDEGLKIAAKHYQFASGAFLHIKETVLSALSREPTVDISPDTVGTLSLIMLAQAQEVFFLKATRDKMKDAIIAKLANQAADYFGDAFKQCQYKDTLPKEVFPVLAAKHCIMQANAEYHQSILAKQQKKFGEEIARLQHAAELIKTVASRYDEYVNVKDFSDKINRALAAAKKDNDFIYHDRVPDLKDLDPIGKATLVKSTPVNVPISQKFTDLFEKMVPVSVQQSLAAYNQRKADLVNRSIAQMREATTLANGVLASLNLPAAIEDVSGDTVPQSILTKSRSVIEQGGIQTVDQLIKELPELLQRNREILDESLRLLDEEEATDNDLRAKFKERWQRTPSNELYKPLRAEGTNFRTVLDKAVQADGQVKECYQSHRDTIVLLCKPEPELNAAIPSANPAKTMQGSEVVNVLKSLLSNLDEVKKEREGLENDLKSVNFDMTSKFLTALAQDGVINEEALSVTELDRVYGGLTTKVQESLKKQEGLLKNIQVSHQEFSKMKQSNNEANLREEVLKNLATAYDNFVELVANLKEGTKFYNELTEILVRFQNKCSDIVFARKTERDELLKDLQQSIAREPSAPSIPTPAYQSSPAGGHAPTPPTPAPRTMPPTKPQPPARPPPPVLPANRAPSATAPSPVGAGTAAPAPSQTPGSAPPPQAQGPPYPTYPGYPGYCQMPMPMGYNPYAYGQYNMPYPPVYHQSPGQAPYPGPQQPSYPFPQPPQQSYYPQQ [Q8WUM4]
[1]; [5]
  percentage of EdU-negative: 4.68 ± 0.54%
[1]; [6]
  percentage of EdU-negative: 4.872 ± 0.012%
[2]; [5]
  percentage of EdU-negative: 24.7 ± 1.5%
[2]; [6]
  percentage of EdU-negative: 25.1 ± 1%

## MVTSSFPISVAVFALITLQVGTQDSFIAAVYEHAVILPNKTETPVSQEDALNLMNENIDILETAIKQAAEQGARIIVTPEDALYGWKFTRETVFPYLEDIPDPQVNWIPCQDPHRFGHTPVQARLSCLAKDNSIYVLANLGDKKPCNSRDSTCPPNGYFQYNTNVVYNTEGKLVARYHKYHLYSEPQFNVPEKPELVTFNTAFGRFGIFTCFDIFFYDPGVTLVKDFHVDTILFPTAWMNVLPLLTAIEFHSAWAMGMGVNLLVANTHHVSLNMTGSGIYAPNGPKVYHYDMKTELGKLLLSEVDSHPLSSLAYPTAVNWNAYATTIKPFPVQKNTFRGFISRDGFNFTELFENAGNLTVCQKELCCHLSYRMLQKEENEVYVLGAFTGLHGRRRREYWQVCTLLKCKTTNLTTCGRPVETASTRFEMFSLSGTFGTEYVFPEVLLTEIHLSPGKFEVLKDGRLVNKNGSSGPILTVSLFGRWYTKDSLYSSCGTSNSAITYLLIFILLMIIALQNIVML
[1]; [7]
  percentage of EdU-negative: 3.63 ± 0.35%
[1]; protein concentration 0.185 µM
  percentage of EdU-negative: 6.84 ± 0.58%
[2]; [7]
  percentage of EdU-negative: 25.8 ± 0.6%
[2]; protein concentration 0.185 µM
  percentage of EdU-negative: 28.11 ± 0.25%

## Q9BXP8
[1]; [8]
  percentage of EdU-negative: 5.11 ± 0.6%
[1]; [9]
  percentage of EdU-negative: 6.47 ± 0.67%
[2]; [8]
  percentage of EdU-negative: 26.6 ± 1.2%
[2]; [9]
  percentage of EdU-negative: 28.7 ± 1.2%

## MESRVLLRTFCLIFGLGAVWGLGVDPSLQIDVLTELELGESTTGVRQVPGLHNGTKAFLFQDTPRSIKASTATAEQFFQKLRNKHEFTILVTLKQTHLNSGVILSIHHLDHRYLELESSGHRNEVRLHYRSGSHRPHTEVFPYILADDKWHKLSLAISASHLILHIDCNKIYERVVEKPSTDLPLGTTFWLGQRNNAHGYFKGIMQDVQLLVMPQGFIAQCPDLNRTCPTCNDFHGLVQKIMELQDILAKTSAKLSRAEQRMNRLDQCYCERTCTMKGTTYREFESWIDGCKNCTCLNGTIQCETLICPNPDCPLKSALAYVDGKCCKECKSICQFQGRTYFEGERNTVYSSSGVCVLYECKDQTMKLVESSGCPALDCPESHQITLSHSCCKVCKGYDFCSERHNCMENSICRNLNDRAVCSCRDGFRALREDNAYCEDIDECAEGRHYCRENTMCVNTPGSFMCICKTGYIRIDDYSCTEHDECITNQHNCDENALCFNTVGGHNCVCKPGYTGNGTTCKAFCKDGCRNGGACIAANVCACPQGFTGPSCETDIDECSDGFVQCDSRANCINLPGWYHCECRDGYHDNGMFSPSGESCEDIDECGTGRHSCANDTICFNLDGGYDCRCPHGKNCTGDCIHDGKVKHNGQIWVLENDRCSVCSCQNGFVMCRRMVCDCENPTVDLFCCPECDPRLSSQCLHQNGETLYNSGDTWVQNCQQCRCLQGEVDCWPLPCPDVECEFSILPENECCPRCVTDPCQADTIRNDITKTCLDEMNVVRFTGSSWIKHGTECTLCQCKNGHICCSVDPQCLQEL
[1]; [10]
  percentage of EdU-negative: 5.41 ± 0.14%
[1]; [11]
  percentage of EdU-negative: 12.7 ± 0.33%
[2]; [10]
  percentage of EdU-negative: 24.4 ± 2.6%
[2]; [11]
  percentage of EdU-negative: 28.9 ± 0.7%

## MTSSGPGPRFLLLLPLLLPPAASASDRPRGRDPVNPEKLLVITVATAETEGYLRFLRSAEFFNYTVRTLGLGEEWRGGDVARTVGGGQKVRWLKKEMEKYADREDMIIMFVDSYDVILAGSPTELLKKFVQSGSRLLFSAESFCWPEWGLAEQYPEVGTGKRFLNSGGFIGFATTIHQIVRQWKYKDDDDDQLFYTRLYLDPGLREKLSLNLDHKSRIFQNLNGALDEVVLKFDRNRVRIRNVAYDTLPIVVHGNGPTKLQLNYLGNYVPNGWTPEGGCGFCNQDRRTLPGGQPPPRVFLAVFVEQPTPFLPRFLQRLLLLDYPPDRVTLFLHNNEVFHEPHIADSWPQLQDHFSAVKLVGPEEALSPGEARDMAMDLCRQDPECEFYFSLDADAVLTNLQTLRILIEENRKVIAPMLSRHGKLWSNFWGALSPDEYYARSEDYVELVQRKRVGVWNVPYISQAYVIRGDTLRMELPQRDVFSGSDTDPDMAFCKSFRDKGIFLHLSNQHEFGRLLATSRYDTEHLHPDLWQIFDNPVDWKEQYIHENYSRALEGEGIVEQPCPDVYWFPLLSEQMCDELVAEMEHYGQWSGGRHEDSRLAGGYENVPTVDIHMKQVGYEDQWLQLLRTYVGPMTESLFPGYHTKARAVMNFVVRYRPDEQPSLRPHHDSSTFTLNVALNHKGLDYEGGGCRFLRYDCVISSPRKGWALLHPGRLTHYHEGLPTTWGTRYIMVSFVDP
[1]; [12]
  percentage of EdU-negative: 5.45 ± 1.1%
[1]; [13]
  percentage of EdU-negative: 8.17 ± 1.2%
[2]; [12]
  percentage of EdU-negative: 25.1 ± 1%
[2]; [13]
  percentage of EdU-negative: 28.2 ± 1.3%

## MRERPRLGEDSSLISLFLQVVAFLAMVMGTHTYSHWPSCCPSKGQDTSEELLRWSTVPVPPLEPARPNRHPESCRASEDGPLNSRAISPWRYELDRDLNRLPQDLYHARCLCPHCVSLQTGSHMDPRGNSELLYHNQTVFYRRPCHGEKGTHKGYCLERRLYRVSLACVCVRPRVMG [Q9H293]
[1]; [14]
  percentage of EdU-negative: 5.07 ± 0.33%
[1]; [15]
  percentage of EdU-negative: 5.25 ± 1%
[2]; [14]
  percentage of EdU-negative: 24 ± 0.49%
[2]; [15]
  percentage of EdU-negative: 36.9 ± 1.7%

## MGSGPRGALSLLLLLLAPPSRPAAGCPAPCSCAGTLVDCGRRGLTWASLPTAFPVDTTELVLTGNNLTALPPGLLDALPALRTAHLGANPWRCDCRLVPLRAWLAGRPERAPYRDLRCVAPPALRGRLLPYLAEDELRAACAPGPLCWGALAAQLALLGLGLLHALLLVLLLCRLRRLRARARARAAARLSLTDPLVAERAGTDES
[1]; [16]
  percentage of EdU-negative: 5.41 ± 0.22%
[1]; protein concentration 0.225 µM
  percentage of EdU-negative: 6.21 ± 0.79%
[2]; [16]
  percentage of EdU-negative: 23.5 ± 3%
[2]; protein concentration 0.225 µM
  percentage of EdU-negative: 27.189 ± 0.018%

## MATSMGLLLLLLLLLTQPGAGTGADTEAVVCVGTACYTAHSGKLSAAEAQNHCNQNGGNLATVKSKEEAQHVQRVLAQLLRREAALTARMSKFWIGLQREKGKCLDPSLPLKGFSWVGGGEDTPYSNWHKELRNSCISKRCVSLLLDLSQPLLPSRLPKWSEGPCGSPGSPGSNIEGFVCKFSFKGMCRPLALGGPGQVTYTTPFQTTSSSLEAVPFASAANVACGEGDKDETQSHYFLCKEKAPDVFDWGSSGPLCVSPKYGCNFNNGGCHQDCFEGGDGSFLCGCRPGFRLLDDLVTCASRNPCSSSPCRGGATCVLGPHGKNYTCRCPQGYQLDSSQLDCVDVDECQDSPCAQECVNTPGGFRCECWVGYEPGGPGEGACQDVDECALGRSPCAQGCTNTDGSFHCSCEEGYVLAGEDGTQCQDVDECVGPGGPLCDSLCFNTQGSFHCGCLPGWVLAPNGVSCTMGPVSLGPPSGPPDEEDKGEKEGSTVPRAATASPTRGPEGTPKATPTTSRPSLSSDAPITSAPLKMLAPSGSPGVWREPSIHHATAASGPQEPAGGDSSVATQNNDGTDGQKLLLFYILGTVVAILLLLALALGLLVYRKRRAKREEKKEKKPQNAADSYSWVPERAESRAMENQYSPTPGTDC [Q9NPY3]
[1]; [16]
  percentage of EdU-negative: 5.36 ± 0.65%
[1]; protein concentration 0.225 µM
  percentage of EdU-negative: 4.92 ± 0.54%
[2]; [16]
  percentage of EdU-negative: 25.7 ± 0.77%
[2]; protein concentration 0.225 µM
  percentage of EdU-negative: 26.9 ± 0.77%
